The results in this text go back to patent publication US20170296628A1 (GRIFFON PHARMACEUTICALS, published 2017).

T1: human GHRH receptor (human, UniProt Q02643 23-423)
T1 sequence (looked up): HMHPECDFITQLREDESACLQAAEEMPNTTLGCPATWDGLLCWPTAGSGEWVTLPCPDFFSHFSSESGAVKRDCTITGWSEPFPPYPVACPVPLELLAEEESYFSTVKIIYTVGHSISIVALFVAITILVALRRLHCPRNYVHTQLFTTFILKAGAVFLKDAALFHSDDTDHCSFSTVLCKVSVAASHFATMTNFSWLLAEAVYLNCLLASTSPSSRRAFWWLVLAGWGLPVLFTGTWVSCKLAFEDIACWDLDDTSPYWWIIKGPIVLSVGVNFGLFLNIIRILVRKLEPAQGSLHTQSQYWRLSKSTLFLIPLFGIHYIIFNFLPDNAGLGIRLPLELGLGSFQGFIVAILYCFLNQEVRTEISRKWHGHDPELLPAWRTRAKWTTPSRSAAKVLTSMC

B1: Analog 15 (C9) (peptide)
peptide: Y[dA]DAIFTACYR[Orn]VLAQLSAR[Orn]ALQDILS[hArg]-NH2
modifications: not fully specified (residue 9); printed as YaDAIFTAC(Peg-5K)YROVLAQLSAROALQDILS(Har)-NH2

Non-standard residues stand in square brackets, D forms with d. No end group written: not given here. hArg = N=C(N)NCCCC[C@H](N)C(=O)O; Orn = NCCC[C@H](N)C(=O)O

The first experiment deals with T1, human GHRH receptor. Description: cell-based or functional assay.
As for Y[dA]DAIFTASYR[Orn]VLAQLSC(PEG 2 kDa)R[Orn]ALQDILSKN-NH2 [Analog 4 (C19)], the “EC50 (nM), Hit Hunter cAMP agonist assay” value is 1.32 nM; the “Max Response (%)” value was determined as 94.9%; the “Potency (%) (% EC50 compared to baseline)” value (shortened to “Potency (%)”) turned out to be 27%.

Turning to Y[dA]DAIFTASYR[Orn]VLAQLSAR[Orn]ALQDILC(PEG 2 kDa)KN-NH2 [Analog 1 (C28)], the “EC50 (nM), Hit Hunter cAMP agonist assay” value turned out to be 0.29 nM; the “Max Response (%)” value was 105%; the “Potency (%)” value was 125%.

Take Y[dA]DAIFTASYR[Orn]VLAQLSAR[Orn]ALQDC(PEG 2 kDa)LSKN-NH2 [Analog 8 (C26)]: the “EC50 (nM), Hit Hunter cAMP agonist assay” value amounted to 0.98 nM; the “Max Response (%)” value is 106%; the “Potency (%)” value is 37%.

With Y[dA]DAIFTASYR[Orn]VLAQLSAR[Orn]ALC(PEG 2 kDa)DILSKN-NH2 [Analog 2 (C24)], the “EC50 (nM), Hit Hunter cAMP agonist assay” value came out at 0.28 nM; the “Max Response (%)” value was 108%; the “Potency (%)” value is 130%.

On to Y[dA]DAIFTAC(PEG 2 kDa)YR[Orn]VLAQLSAR[Orn]ALQDILSKN-NH2 [Analog 6 (C9)], for which the “EC50 (nM), Hit Hunter cAMP agonist assay” value stood at 0.29 nM; the “Max Response (%)” value was determined as 102%; the “Potency (%)” value stood at 123%.

Regarding Y[dA]DAIFTASYR[Orn]VLAQLSAR[Orn]C(PEG 2 kDa)LQDILSKN-NH2 [Analog 3 (C22)], the “EC50 (nM), Hit Hunter cAMP agonist assay” value worked out at 0.25 nM; the “Max Response (%)” value was 100%; the “Potency (%)” value is 143%.

As for Y[dA]DAIFTASYR[Orn]VLC(PEG 2 kDa)QLSAR[Orn]ALQDILSKN-NH2 [Analog 5 (C15)], the “EC50 (nM), Hit Hunter cAMP agonist assay” value came to 1.38 nM; the “Max Response (%)” value is 107%; the “Potency (%)” value amounted to 26%.

Take Y[dA]DAIFTC(PEG 2 kDa)SYR[Orn]VLAQLSAR[Orn]ALQDILSKN-NH2 [Analog 7 (C8)]: the “EC50 (nM), Hit Hunter cAMP agonist assay” value worked out at 0.69 nM; the “Max Response (%)” value was 108%; the “Potency (%)” value is 52%.

Turning to YADAIFTNSYRKVLGQLSARKLLQDIMSX (C-terminal amide) [Human GHRH1-29], the “Max Response (%)” value worked out at 104% and the “Potency (%)” value is 100%.

In the case of Y[dA]DAIFTASYR[Orn]VLAC(PEG 2 kDa)LSAR[Orn]ALQDILSKN-NH2 [Analog 9 (C16)], the “EC50 (nM), Hit Hunter cAMP agonist assay” value was found to be 0.92 nM; the “Max Response (%)” value worked out at 107%; the “Potency (%)” value stood at 39%.

The target in the next experiment is T1, human GHRH receptor. Description: cell-based or functional assay. The source holds these as a separate data set.
As to Y[dA]DAIFTAC(PEG 2 kDa)YR[Orn]VLAQLSAR[Orn]ALQDILS[hArg]-NH2 [Analog 10 (C9)], the “EC50 (nM), Hit Hunter cAMP agonist assay” value was found to be 0.11 nM; the “Max. response (%)” value stood at 96.2%; the “Potency (%)” value worked out at 1400%.

Regarding Y[dA]DAIFTAC(PEG 2 kDa)YR[Orn]VLAQLSAR[Orn]ALQDILC(PEG 2 kDa)RN-NH2 [Analog 12 (C9,28)], the “Max. response (%)” value came out at 102% and the “Potency (%)” value came out at 416%.

Regarding Y[dA]DAIFTAC(PEG 40 kDa)YR[Orn]VLAQLSAR[Orn]ALQDILS[hArg]-NH2 [Analog 16 (C9)], the “EC50 (nM), Hit Hunter cAMP agonist assay” value amounted to 0.74 nM; the “Max. response (%)” value is 93.7%; the “Potency (%)” value was determined as 200%.

Take Y[dA]DAIFTAC(PEG 2 kDa)YR[Orn]VLAQLSAR[Orn]ALQDILSRNC(PEG 2 kDa)-NH2 [Analog 11 (C9,31)]: the “EC50 (nM), Hit Hunter cAMP agonist assay” value came out at 0.47 nM; the “Max. response (%)” value is 97.2%; the “Potency (%)” value was found to be 314%.

As to Y[dA]DAIFTAC(PEG 2 kDa)YR[Orn]VLAQLSAR[Orn]ALC(PEG 2 kDa)DILSRN-NH2 [Analog 13 (C9,24)], the “EC50 (nM), Hit Hunter cAMP agonist assay” value was determined as 0.41 nM; the “Max. response (%)” value was determined as 103%; the “Potency (%)” value was found to be 361%.

Consider Y[dA]DAIFTAC(PEG 2 kDa)YR[Orn]VLAQLSAR[Orn]C(PEG 2 kDa)LQDILSRN-NH2 [Analog 14 (C9,22)], for which the “EC50 (nM), Hit Hunter cAMP agonist assay” value turned out to be 0.73 nM; the “Max. response (%)” value was 97.2%; the “Potency (%)” value turned out to be 203%.

Take B1: the “EC50 (nM), Hit Hunter cAMP agonist assay” value was found to be 0.22 nM; the “Max. response (%)” value was 94.3%; the “Potency (%)” value worked out at 669%.

As to YADAIFTNSYRKVLGQLSARKLLQDIMSX (C-terminal amide) [Human GHRH1-29], the “Max. response (%)” value stood at 113% and the “Potency (%)” value amounted to 100%.
